Laboratory results reported in article PMC12905440.

Columns and labels:
[1] = molecular target: Ago1 (RISC) (UniProt A1Z9J5); experiment: RBNS; details: RBNS: 20 mM HEPES-KOH pH 7.9, 100 mM KOAc, 3.5 mM Mg(OAc)2, 0.05% CHAPS, 2 mM DTT, 8% glycerol, BSA, tRNA, 25 C, 2 h, filter binding: 25 mM HEPES-KOH pH 7.9 …
[2] = molecular target: T1, PUM2 (Homo sapiens) (UniProt Q8TB72); experiment: RBNS; details: re-analysis of published RBNS data (ref 38); RBNS: 20 mM HEPES-KOH pH 7.9, 100 mM KOAc, 3.5 mM Mg(OAc)2, 0.05% CHAPS, 2 mM DTT, 8% glycerol, BSA, tRNA, 25 C, 2 h; filter binding: 25 mM HEPES-KOH pH 7.9 …
T1 sequence: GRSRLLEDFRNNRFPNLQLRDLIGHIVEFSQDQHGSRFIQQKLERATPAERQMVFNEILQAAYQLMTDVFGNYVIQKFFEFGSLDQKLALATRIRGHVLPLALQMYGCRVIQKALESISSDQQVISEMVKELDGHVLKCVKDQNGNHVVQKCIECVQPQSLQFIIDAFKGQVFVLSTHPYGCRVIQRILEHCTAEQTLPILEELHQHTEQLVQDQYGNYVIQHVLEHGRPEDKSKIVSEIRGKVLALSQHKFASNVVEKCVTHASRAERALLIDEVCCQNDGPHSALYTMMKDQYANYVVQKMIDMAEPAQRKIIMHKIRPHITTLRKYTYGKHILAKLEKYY

[3] = molecular target: Ago1 (RISC) (UniProt A1Z9J5); experiment: double-filter binding; details: let-7 guide, RBNS: 20 mM HEPES-KOH pH 7.9, 100 mM KOAc, 3.5 mM Mg(OAc)2, 0.05% CHAPS, 2 mM DTT, 8% glycerol, BSA, tRNA, 25 C, 2 h, filter binding: 25 mM HEPES-KOH pH 7.9 …

Chain of Ago1 (RISC) (A1Z9J5 entry or part of it): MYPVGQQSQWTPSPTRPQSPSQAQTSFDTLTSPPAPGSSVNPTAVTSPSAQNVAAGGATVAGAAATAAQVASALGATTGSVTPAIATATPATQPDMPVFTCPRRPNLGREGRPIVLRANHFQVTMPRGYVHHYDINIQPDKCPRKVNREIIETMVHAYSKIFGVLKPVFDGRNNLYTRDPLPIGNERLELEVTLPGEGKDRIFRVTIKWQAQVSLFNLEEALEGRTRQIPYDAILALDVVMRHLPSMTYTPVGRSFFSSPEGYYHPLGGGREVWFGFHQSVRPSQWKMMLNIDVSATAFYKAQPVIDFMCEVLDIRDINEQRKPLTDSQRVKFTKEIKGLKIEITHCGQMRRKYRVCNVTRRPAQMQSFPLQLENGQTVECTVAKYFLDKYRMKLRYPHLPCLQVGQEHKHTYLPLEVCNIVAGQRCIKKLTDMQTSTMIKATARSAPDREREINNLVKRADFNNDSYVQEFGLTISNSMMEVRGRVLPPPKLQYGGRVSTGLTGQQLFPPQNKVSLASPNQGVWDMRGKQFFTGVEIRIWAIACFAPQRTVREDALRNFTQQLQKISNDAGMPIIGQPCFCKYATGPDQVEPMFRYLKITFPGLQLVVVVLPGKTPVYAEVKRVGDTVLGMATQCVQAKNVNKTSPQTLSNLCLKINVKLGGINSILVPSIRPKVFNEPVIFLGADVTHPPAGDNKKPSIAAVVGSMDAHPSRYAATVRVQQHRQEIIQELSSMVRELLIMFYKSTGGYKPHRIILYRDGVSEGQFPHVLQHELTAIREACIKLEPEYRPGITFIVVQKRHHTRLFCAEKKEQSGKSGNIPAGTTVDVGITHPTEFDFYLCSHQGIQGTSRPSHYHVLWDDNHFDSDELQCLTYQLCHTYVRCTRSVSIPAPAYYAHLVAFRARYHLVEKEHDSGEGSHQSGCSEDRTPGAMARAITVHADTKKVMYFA

Substance: CUACCUUB / UGAGGUAGUAGGUUGUAUAGU [let-7 / 7mer-m8,w2]
- Kd ([1]; let-7 guide): 0.278 nM

Substance: UCCGUCUB / UGGACGGAGAACUGAUAAGGGC [miR-184 / 7mer-m8,w2]
- Kd ([1]; miR-184 guide): 0.154 nM

Substance: UGAUCUUB / UGAGAUCAUUUUGAAAGCUGAUU [bantam / 7mer-m8,w2]
- Kd ([1]; bantam guide): 0.866 nM

Substance: UGUAUAUA [PUM consensus site]
- Kd [2]: 0.12 nM

Substance: let-7 guide / fully complementary target (Fig 1c)
- Kd [3]: 2 pM

Substance: let-7 guide / seed-matching target (Fig 1c)
- Kd ([3]; 5' 32P target): 5 pM
